# In patent US20080221021A1, “Novel Corticotropin-Releasing Factor Receptor 1 (Crfr1) Agonist” (Max-Planck-Gesellschaft Zur Forderung Der, priority 2004, published 2008):
# Columns and labels:
# mouse CRFR2β (mouse) [1] = target: mouse CRFR2β (mouse) (UniProt Q60748); assay: competition binding
# rat CRFR1α (rat) [2] = target: rat CRFR1α (rat) (UniProt P35353); assay: competition binding
# rat CRFR1α (rat) [3] = target: rat CRFR1α (rat) (UniProt P35353); assay: competition binding; selectivity for CRFR1 over CRFR2, reference h/rCRF; data not shown
# rat CRFR1α (rat) [4] = target: rat CRFR1α (rat) (UniProt P35353); assay: competition binding against [125I-Tyr0]h/rCRF, SPA; reference compound 6
# rat CRFR1α (rat) [5] = target: rat CRFR1α (rat) (UniProt P35353); assay: competition binding (SPA); selectivity for rCRFR1 over mCRFR2β, reference h/rCRF
# mouse CRFR2β (mouse) [6] = target: mouse CRFR2β (mouse) (UniProt Q60748); assay: competition
# rat CRFR1α (rat), sequence (P35353 24-415): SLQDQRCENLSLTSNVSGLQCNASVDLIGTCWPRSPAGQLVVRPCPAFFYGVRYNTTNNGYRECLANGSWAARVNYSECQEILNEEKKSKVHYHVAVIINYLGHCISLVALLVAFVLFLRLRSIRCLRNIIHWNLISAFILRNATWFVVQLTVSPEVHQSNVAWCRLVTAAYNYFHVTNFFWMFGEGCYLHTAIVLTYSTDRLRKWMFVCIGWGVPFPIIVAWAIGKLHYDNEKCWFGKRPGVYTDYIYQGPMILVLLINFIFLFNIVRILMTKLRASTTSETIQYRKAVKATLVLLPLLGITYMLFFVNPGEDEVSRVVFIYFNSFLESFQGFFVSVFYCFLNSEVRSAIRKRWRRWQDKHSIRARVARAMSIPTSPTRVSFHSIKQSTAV
# mouse CRFR2β (mouse), sequence (Q60748 20-411): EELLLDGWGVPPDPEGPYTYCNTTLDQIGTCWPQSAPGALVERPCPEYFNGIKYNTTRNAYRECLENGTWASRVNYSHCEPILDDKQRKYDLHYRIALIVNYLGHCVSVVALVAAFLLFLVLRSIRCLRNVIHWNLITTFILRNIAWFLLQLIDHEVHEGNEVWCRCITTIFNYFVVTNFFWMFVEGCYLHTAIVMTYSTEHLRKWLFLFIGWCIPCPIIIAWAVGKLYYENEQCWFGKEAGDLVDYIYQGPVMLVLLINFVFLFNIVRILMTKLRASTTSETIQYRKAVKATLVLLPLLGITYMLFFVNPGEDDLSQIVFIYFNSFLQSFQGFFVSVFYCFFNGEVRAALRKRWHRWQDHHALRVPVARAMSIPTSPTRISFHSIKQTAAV
# human/rat corticotropin-releasing factor, sequence (P06850 154-194): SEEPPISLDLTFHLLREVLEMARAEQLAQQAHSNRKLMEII
Substance,IC50 (mouse CRFR2β (mouse) [1]),IC50 (rat CRFR1α (rat) [2]),other results
[h/rCRF^1-13]x[Svg^13-29]x[h/rCRF^31-41] (from UniProt P06850 154-166; P01144 13-29; P06850 184-194),0.69 nM,0.47 nM,
[Svg^1-12]x[h/rCRF^14-30]x[Svg^30-40] (from UniProt P01144 1-12; P06850 167-183; P01144 30-40),700 nM,9.5 nM,
[Ala^41]h/rCRF (from UniProt P06850 154-194) (peptide),,,fold increase in CRFR1 selectivity against h/rCRF (rat CRFR1α (rat) [3]): 3 fold
[Svg^1-29]x[h/rCRF^31-41] (from UniProt P01144 1-29; P06850 184-194),0.98 nM,1.8 nM,
[Ala^40] [Svg^1-12]x[h/rCRF^14-30]x[Svg^30-40] (peptide),,,fold increase in affinity against compound 6 (rat CRFR1α (rat) [4]): > 5 fold
[h/rCRF^1-30]x[Svg^30-40] (from UniProt P06850 154-183; P01144 30-40),330 nM,2 nM,
ovine corticotropin-releasing factor (peptide),,,fold higher selectivity for CRFR1 than h/rCRF (rat CRFR1α (rat) [5]): 3 fold
human/rat corticotropin-releasing factor (from UniProt P06850 154-194),,1.6 nM,IC50 (mouse CRFR2β (mouse) [6]): 42 nM
